# Measured values: the RNAGym collection of RNA variant scans (doi:10.1073/pnas.2313332121)
# B1: TPR t1 (parent)
# chain: GACCAAUCUGCCCUCAGAGCUCGAGAACAUCUUCGGAUGCAGAGGAGGCAGGCUUCGGUGGCGCGAUAGCGCCAACGUCCUCAACCUCCAAUGCAUCCCACCACAUGAUGAUGCCUGAAGAGCCUUGGUUUUUUG
# Variants of: B1
# Test: polymerase ribozyme fitness, log enrichment relative to wild type (log ratio); higher = more active; in vitro selection for triplet polymerase activity
# Method in brief: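 Mutant libraries were PCR-built and transcribed for each subunit of a heterodimeric triplet polymerase ribozyme and selected for one round in triplicate at −7 °C, frozen, before gel excision of extended constructs and streptavidin-bead capture. Input and output libraries were Illumina-sequenced, keeping genotypes with ≥10 input reads and ≥1 read per output. Fitness is a logarithmic ratio of genotype to wild-type enrichment, in base 2, using inverse-variance-weighted replicate averages.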
row,Variant,polymerase ribozyme fitness (log ratio)
1,GACCAAUCUGCCCUCAGAGCUCGAGAACAUCUUCGGAUGCAGAGGAGGCAGGCUUCGGUGGCGCGAUAACGCCAACGUCCUCAACCUCCAAUGCAUCCCACCACAUGAUGAUGCCUGAAGAACCUUGGUUUUUUG [G69A G122A],-2.53
2,GACCAAUCUGCCCUCAGAGCUCGAGAACAUCUUCGGAUGCAGAGGAGGCAGGCUUCGGUGGCGCGAUACCGUCAACGUCCUCAACCUCCAACGCAUCCCAUCACAUGAUGAUGCCUUAAGAGCCUUGGUUUUUUG [G69C C72U U92C C101U G117U],-5.11
3,GACCAAUCUGCCCUCAGAGCUCGAGAACAUCUUCGGAUGCAGAGGAGGCAGGCUUCGGUGGCGCGAUAACGCCAACGUCCUCAACCUCCAAUGCAUCCCACCACAUGAUGAUGCCUGAAGAGCCUUGGAUUUUUG [G69A U129A],-3.9
4,GACCAAUCUGCCCUCAGAGCUCGAGAACAUCUUCGGAUGCAGAGGAGGCAGGCUUCGGUGGCGCGAUACCGCCAACGUCCUCACCCUCCAAUGCAUCCCACCACAUGAUGAUGCCUGAAGAGCCUUGCUUUUUUG [G69C A84C G128C],-4.09
5,GACCAAUCUGCCCUCAGAGCUCGAGAACAUCUUCGGAUGCAGAGGAGGCAGGCUUCGGUGGCGCGAUACCGCCAACGUCCUCAACCUCCAAUGCAUCCCACCACUUGAUGAGGCCUGAAGAGCCUUGGUUUUUUG [G69C A105U U112G],-3.4
6,GACCAAUCUGCCCUCAGAGCUCGAGAACAUCUUCGGAUGCAGAGGAGGCAGGCUUCGGUGGCGCGAUACCGCCAACGUCCUCACCCUCCAAUGCAUCCCACCACAUGAUGAUGCCUGAAGAGCCAUGGUUUUUUG [G69C A84C U125A],-2.42
7,GACCAAUCUGCCCUCAGAGCUCGAGAACAUCUUCGGAUGCAGAGGAGGCAGGCUUCGGUGGCGCGAUAACGCCAACGUCCUCAACCCCCAAUGCAUCCCACCACAUGAUGAUGCCUGAAGAGCCUUGGUUUUUUG [G69A U87C],-2.12
8,GACCAAUCUGCCCUCAGAGCUCGAGAACAUCUUCGGAUGCAGAGGAGGCAGGCUUCGGUGGCGCGAUAACGCCAACGUCCUCAACCGCCAAUGCAUCCCACCACAUGAUGAUGCCUGAAGAGCCUUGGUUUUUUG [G69A U87G],-2.08
9,GACCAAUCUGCCCUCAGAGCUCGAGAACAUCUUCGGAUGCAGAGGAGGCAGGCUUCGGUGGCGCGAUACCGCCAACGUCCUCGACCUCCAAUGCAUCCCACCACAUGAUGAUGCCUGAACAGCCUUGGUUUUUUG [G69C A83G G120C],-1.54
10,GACCAAUCUGCCCUCAGAGCUCGAGAACAUCUUCGGAUGCAGAGGAGGCAGGCUUCGGUGGCGCGAUAACGCCAACGUCCUCAACCUCCAAUGCAUCCCACCACAUGAUGAAGCCUGAAGAGCCUUGGUUUUUUG [G69A U112A],-2.26
11,GACCAAUCUGCCCUCAGAGCUCGAGAACAUCUUCGGAUGCAGAGGAGGCAGGCUUCGGUGGCGCGAUAACGCCAACGUCCUCAACCUCCAAUGCAUCCCACCACAUGAUGACGCCUGAAGAGCCUUGGUUUUUUG [G69A U112C],-0.685
12,GACCAAUCUGCCCUCAGAGCUCGAGAACAUCUUCGGAUGCAGAGGAGGCAGGCUUCGGUGGCGCGAUACCGCCAACGUCCUCGACCUCCAAUGCAUCCCACCACAUGAUGAUGCCUGAAGAGCCUUGGUUUUUUG [G69C A83G],-2.31
13,GACCAAUCUGCCCUCAGAGCUCGAGAACAUCUUCGGAUGCAGAGGAGGCAGGCUUCGGUGGCGCGAUAACGCCAACGUCCGCAACCUCCAAUGCAUCCCACCACAUGAUGAUGCCUGAAGAGCCUUGGUUUUUUG [G69A U81G],-6.79
14,GACCAAUCUGCCCUCAGAGCUCGAGAACAUCUUCGGAUGCAGAGGAGGCAGGCUUCGGUGGCGCGAUAACGCCAACGUCCCCAACCUCCAAUGCAUCCCACCACAUGAUGAUGCCUGAAGAGCCUUGGUUUUUUG [G69A U81C],-2.71
15,GACCAAUCUGCCCUCAGAGCUCGAGAACAUCUUCGGAUGCAGAGGAGGCAGGCUUCGGUGGCGCGAUACCGCCAACGUCCUCAACCUCCAAUGCAUCCCACCACAUGAUGCUGCCUGAAGAGCCUUGGUUUUUUG [G69C A111C],-0.894
16,GACCAAUCUGCCCUCAGAGCUCGAGAACAUCUUCGGAUGCAGAGGAGGCAGGCUUCGGUGGCGCGAUACCGCCAACGUCCUCAACCUCCUAUGCAUCCCACCACAUGAUGAUGCCUGAAGAGCCUUGGUUUUUUG [G69C A90U],-2.68
17,GACCAAUCUGCCCUCAGAGCUCGAGAACAUCUUCGGAUGCAGAGGAGGCAGGCUUCGGUGGCGCGAUACAGCCAACGUCCUCAACCUCCAAUGCAUCCCACCACAUGAUGAUGCCUAAAGGGCCUUGGUUUUUUG [G69C C70A G117A A121G],-6.08
18,GACCAAUCUGCCCUCAGAGCUCGAGAACAUCUUCGGAUGCAGAGGAGGCAGGCUUCGGUGGCGCGAUAACGCCAACGUCCUCAACCUCCAAUGCAUCCCACCACAUGAUGAUGCCUGAAGAGCCUUAGUUUUUUG [G69A G127A],-4.05
19,GACCAAUCUGCCCUCAGAGCUCGAGAACAUCUUCGGAUGCAGAGGAGGCAGGCUUCGGUGGCGCGAUAACGCCAACGUCCUCAACCUCCAAUGCAUCCCACCACAUGAUGAUGCCUUAAGAGCCUUGGUUUUUUG [G69A G117U],-5.17
20,GACCAAUCUGCCCUCAGAGCUCGAGAACAUCUUCGGAUGCAGAGGAGGCAGGCUUCGGUGGCGCGAUAACGCCAACGGCCUCAACCUCCAAUGCAUCCCACCACAUGAUGAUGCCUGAAGAGCCUUGGUUUUUUG [G69A U78G],-2.63
21,GACCAAUCUGCCCUCAGAGCUCGAGAACAUCUUCGGAUGCAGAGGAGGCAGGCUUCGGUGGCGCGAUAACGCCAACGACCUCAACCUCCAAUGCAUCCCACCACAUGAUGAUGCCUGAAGAGCCUUGGUUUUUUG [G69A U78A],-2.94

row,Variant,polymerase ribozyme fitness (log ratio)
1,GACCAAUCUGCCCUCAGAGCUCGAGAACAUCUUCGGAUGCAGAGGAGGCAGGCUUCGGUGGCGCGAUAACGCCAACGCCCUCAACCUCCAAUGCAUCCCACCACAUGAUGAUGCCUGAAGAGCCUUGGUUUUUUG [G69A U78C],-2.5
2,GACCAAUCUGCCCUCAGAGCUCGAGAACAUCUUCGGAUGCAGAGGAGGCAGGCUUCGGUGGCGCGAUACCGCCAACGUCCUCAGCCUCCAAUGCAUCCCACCACAUGAUGAUGCCUGUAGAGCCUUAGUUUUUUG [G69C A84G A118U G127A],-2.68
3,GACCAAUCUGCCCUCAGAGCUCGAGAACAUCUUCGGAUGCAGAGGAGGCAGGCUUCGGUGGCGCGAUAACGCCAACGUCCUCAACCUCCAAUGCAGCCCACCACAUGAUGAUGCCUGAAGCGCCUUGGUUUUUUG [G69A U96G A121C],-1.72
4,GACCAAUCUGCCCUCAGAGCUCGAGAACAUCUUCGGAUGCAGAGGAGGCAGGCUUCGGUGGCGCGAUAACGCCAACGUCCUCAACCUCCAAUGCAUCCCACCACAUGAUGAUGCCUGAAGAGCCUUGGUGUUUUG [G69A U130G],-2.69
5,GACCAAUCUGCCCUCAGAGCUCGAGAACAUCUUCGGAUGCAGAGGAGGCAGGCUUCGGUGGCGCGAUAACGCCAACGUCCUCAACCUCCAAUGCAUCCCACCACAUGAUGAUGCCUGAAGAGCCUUGGUAUUUUG [G69A U130A],-3.11
6,GACCAAUCUGCCCUCAGAGCUCGAGAACAUCUUCGGAUGCAGAGGAGGCAGGCUUCGGUGGCGCGAUAACGCCAACGUCCUCAACCUCCAAUGCAUCCCACCACAUGAUGAUGCCUGAAGAGCCUUGGUCUUUUG [G69A U130C],-3.09
7,GACCAAUCUGCCCUCAGAGCUCGAGAACAUCUUCGGAUGCAGAGGAGGCAGGCUUCGGUGGCGCGAUACCGCAAACGUCCUCAACCUCCAAUGCAUCCCACCACAUGAUGAUGCCUGAAGAACGUUGGUUUUUUG [G69C C73A G122A C124G],-0.387
8,GACCAAUCUGCCCUCAGAGCUCGAGAACAUCUUCGGAUGCAGAGGAGGCAGGCUUCGGUGGCGCGAUAACGCCAACGUCCUCAACCUCCAAUGCAUCCCACCACAUGAUGAUUCCUGAAGAGCCUUGGUUUUUUG [G69A G113U],-5.37
9,GACCAAUCUGCCCUCAGAGCUCGAGAACAUCUUCGGAUGCAGAGGAGGCAGGCUUCGGUGGCGCGAUAACGCCAACGUCCUCAACCUCCAAUGCAUCCCACCACAUGAUGAUCCCUGAAGAGCCUUGGUUUUUUG [G69A G113C],-3.4
10,GACCAAUCUGCCCUCAGAGCUCGAGAACAUCUUCGGAUGCAGAGGAGGCAGGCUUCGGUGGCGCGAUAACGCCAACGUCCUCAACCUCCAAUGCAUCCCACCACAUGAUGAUACCUGAAGAGCCUUGGUUUUUUG [G69A G113A],-2.7
11,GACCAAUCUGCCCUCAGAGCUCGAGAACAUCUUCGGAUGCAGAGGAGGCAGGCUUCGGUGGCGCGAUAACGCCAACGUCCUCAACCUCCAAUGCAUCCCACCACAUGAAGAUGCCUGAAGAGCCUUGGUUUUUUG [G69A U109A],-5.09
12,GACCAAUCUGCCCUCAGAGCUCGAGAACAUCUUCGGAUGCAGAGGAGGCAGGCUUCGGUGGCGCGAUACCGCCAACGUCCUCAACCUCCAAUGCAUCCCACCACAUGAUGAUGCCUGAGGAGCCUUGGUUUUUUG [G69C A119G],-0.227
13,GACCAAUCUGCCCUCAGAGCUCGAGAACAUCUUCGGAUGCAGAGGAGGCAGGCUUCGGUGGCGCGAUACCGCCAACGUCCUCAACCUCCAAUGCAUCCCACCACAUGAUGAUGCCUGAUGAGCCUUGGUUUUUUG [G69C A119U],-1.32
14,GACCAAUCUGCCCUCAGAGCUCGAGAACAUCUUCGGAUGCAGAGGAGGCAGGCUUCGGUGGCGCGAUAACGCCAACGUCCUCAACCUCCAAUGCAUCCCACCACACGAUGAUGCCUGAAGAGCCUUGGUUUUUUG [G69A U106C],-3.42
15,GACCAAUCUGCCCUCAGAGCUCGAGAACAUCUUCGGAUGCAGAGGAGGCAGGCUUCGGUGGCGCGAUAACGCCAACGUCCUCAACCUCCAAUGCAUCCCACCACAAGAUGAUGCCUGAAGAGCCUUGGUUUUUUG [G69A U106A],-2.76
16,GACCAAUCUGCCCUCAGAGCUCGAGAACAUCUUCGGAUGCAGAGGAGGCAGGCUUCGGUGGCGCGAUACCGCCAACGUCCUCAACCUCCAUUGCAUCCCACCACAUGAUGAUGCCUGAAGAGCCUUGGUUUUUUG [G69C A91U],-3.08
17,GACCAAUCUGCCCUCAGAGCUCGAGAACAUCUUCGGAUGCAGAGGAGGCAGGCUUCGGUGGCGCGAUACUGCCAACGUCUUCAACCUCCAAUGCAUCCCACCACAUGAUGAGGCCUUUAGAGCCUUGGUUUUUUG [G69C C70U C80U U112G G117U A118U],-7.19
18,GACCAAUCUGCCCUCAGAGCUCGAGAACAUCUUCGGAUGCAGAGGAGGCAGGCUUCGGUGGCGCGAUACCGCCAACGUCCUCAACCUCCAAUGCAUCCCACCACAUGAUGAUGCCUGAAGGGCCUUGGUUUUUUG [G69C A121G],0.734
19,GACCAAUCUGCCCUCAGAGCUCGAGAACAUCUUCGGAUGCAGAGGAGGCAGGCUUCGGUGGCGCGAUAACGCCAACGUCCUCAACCUCCAAUGCAUCCCACCACAUGAUGAUACCUGAAGUGCCUUGGUUUUUUG [G69A G113A A121U],-1.68
20,GACCAAUCUGCCCUCAGAGCUCGAGAACAUCUUCGGAUGCAGAGGAGGCAGGCUUCGGUGGCGCGAUACUGCCAACGUCCUCAACCUCCAAUGCAUCCCACCACAUGAUGAUGCCUGAAGAGCCUUGGUUUUUUG [G69C C70U],-3.87
21,GACCAAUCUGCCCUCAGAGCUCGAGAACAUCUUCGGAUGCAGAGGAGGCAGGCUUCGGUGGCGCGAUACCGCCAACGUCCUCAACCUCCACUGCAUCCCACCACAUGAUGAUUCCUGAAGAGCCUUGGUUUUUUG [G69C A91C G113U],-4.43
